Laboratory results reported in publication PMC13410764.

Biological target: Tr1 protein of Anaplasma phagocytophilum (recombinant, tagless) (Anaplasma phagocytophilum)
Assay: SEC; gel filtration on a HiPrep Sephadex 75 16/600 column with Buffer B; apparent molecular weights from a standard curve of elution volumes

Question: For “Tr1 protein of Anaplasma phagocytophilum (recombinant, tagless) (natural protein)”, which stoichiometry N is on record?
Answer: Its stoichiometry N is 4.
